According to US20260167699A1 (Chugai, published 2026):
Changes are numbered by the printed parent chain.

T1: FcγRIIa(R) extracellular domain, C-terminal His tag (human, UniProt P12318 34-217)
T1 construct: extracellular domain; also called 2aR
T1 sequence: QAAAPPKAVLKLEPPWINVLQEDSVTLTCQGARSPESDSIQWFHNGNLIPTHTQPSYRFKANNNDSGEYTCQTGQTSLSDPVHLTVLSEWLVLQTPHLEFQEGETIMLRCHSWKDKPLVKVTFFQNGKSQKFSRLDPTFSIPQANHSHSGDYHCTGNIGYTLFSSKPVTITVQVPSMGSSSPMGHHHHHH

T2: FcγRIIa(H) extracellular domain, C-terminal His tag (human, UniProt P12318 34-217)
T2 construct: extracellular domain; also called 2aH
T2 sequence: T1 sequence with R134H

T3: FcγRIIb extracellular domain, C-terminal His tag (human, UniProt P31994 43-217)
T3 construct: extracellular domain; also called 2b
T3 sequence: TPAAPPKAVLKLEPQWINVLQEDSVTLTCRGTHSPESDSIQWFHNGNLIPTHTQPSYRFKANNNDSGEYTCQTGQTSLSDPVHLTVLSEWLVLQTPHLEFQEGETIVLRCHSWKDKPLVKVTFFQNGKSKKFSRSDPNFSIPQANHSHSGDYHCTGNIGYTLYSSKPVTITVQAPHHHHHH

T4: FcγRIIa(H) extracellular domain, C-terminal His tag (human, UniProt P12318 34-217)
T4 construct: extracellular domain; Allotype H131; also called 2aH
T4 sequence: T1 sequence with R134H

T5: FcγRIIa(R) extracellular domain, C-terminal His tag (human, UniProt P12318 34-217)
T5 construct: extracellular domain; Allotype R131; also called 2aR
T5 sequence: T1 sequence

T6: FcγRIIb extracellular domain, C-terminal His tag (human, UniProt P31994 43-217)
T6 construct: extracellular domain; also called 2b
T6 sequence: T3 sequence

B1: GpH7-A5/GpH7-B3 variant Y300_01G/GpL16-k0 (antibody, human IgG1, kappa)
heavy 1: not shown
heavy 2: not shown
light: DIVMTQSPLSLPVTPGEPASISCQASESLVHSNRNTYLHWYLQKPGQSPQLLIYKVSNRFSGVPDRFSGSGSGTDFTLKISRVEAEDVGVYYCSQNTHVPPTFGQGTKVEIERTVAAPSVFIFPPSDEQLKSGTASVVCLLNNFYPREAKVQWKVDNALQSGNSQESVTEQDSKDSTYSLSSTLTLSKADYEKHKVYACEVTHQGLSSPVTKSFNRGEC
notes: heterodimerized IgG1, one H chain mutated; also called He Ab; copies: 1 + 1 + 2
B2: GpH7-A5/GpH7-B3 variant Y300_02A/GpL16-k0 (antibody, human IgG1, kappa)
heavy 1: not shown
heavy 2: not shown
light: B1 light
notes: as for B1
B3: GpH7-A5/GpH7-B3 variant Y300_10E/GpL16-k0 (antibody, human IgG1, kappa)
heavy 1: not shown
heavy 2: not shown
light: B1 light
notes: as for B1
B4: GpH7-A5/GpH7-B3 variant Y300_08L/GpL16-k0 (antibody, human IgG1, kappa)
heavy 1: not shown
heavy 2: not shown
light: B1 light
notes: as for B1
B5: GpH7-A5/GpH7-B3 variant Y300_16H/GpL16-k0 (antibody, human IgG1, kappa)
heavy 1: not shown
heavy 2: not shown
light: B1 light
notes: as for B1
B6: GpH7-A5/GpH7-B3 variant Y300_07I/GpL16-k0 (antibody, human IgG1, kappa)
heavy 1: not shown
heavy 2: not shown
light: B1 light
notes: as for B1
B7: GpH7-A5/GpH7-B3 variant Y300_03V/GpL16-k0 (antibody, human IgG1, kappa)
heavy 1: not shown
heavy 2: not shown
light: B1 light
notes: as for B1
B8: GpH7-A5/GpH7-B3 variant Y300_14T/GpL16-k0 (antibody, human IgG1, kappa)
heavy 1: not shown
heavy 2: not shown
light: B1 light
notes: as for B1
B9: GpH7-A5/GpH7-B3 variant Y300_06M/GpL16-k0 (antibody, human IgG1, kappa)
heavy 1: not shown
heavy 2: not shown
light: B1 light
notes: as for B1
B10: GpH7-A5/GpH7-B3 variant Y300_19Q/GpL16-k0 (antibody, human IgG1, kappa)
heavy 1: not shown
heavy 2: not shown
light: B1 light
notes: as for B1
B11: GpH7-A5/GpH7-B3 variant Y300_18N/GpL16-k0 (antibody, human IgG1, kappa)
heavy 1: not shown
heavy 2: not shown
light: B1 light
notes: as for B1
B12: GpH7-A5/GpH7-B3 variant Y300_13S/GpL16-k0 (antibody, human IgG1, kappa)
heavy 1: not shown
heavy 2: not shown
light: B1 light
notes: as for B1
B13: GpH7-A5/GpH7-B3 variant Y300_11K/GpL16-k0 (antibody, human IgG1, kappa)
heavy 1: not shown
heavy 2: not shown
light: B1 light
notes: as for B1
B14: GpH7-A5/GpH7-B3 variant Y300_09D/GpL16-k0 (antibody, human IgG1, kappa)
heavy 1: not shown
heavy 2: not shown
light: B1 light
notes: as for B1
B15: GpH7-A5/GpH7-B3 variant Y300_20W/GpL16-k0 (antibody, human IgG1, kappa)
heavy 1: not shown
heavy 2: not shown
light: B1 light
notes: as for B1
B16: GpH7-A5/GpH7-B3 variant Y300_04F/GpL16-k0 (antibody, human IgG1, kappa)
heavy 1: not shown
heavy 2: not shown
light: B1 light
notes: as for B1
B17: GpH7-A5/GpH7-B3 variant K326_20W/GpL16-k0 (antibody, human IgG1, kappa)
heavy 1: not shown
heavy 2: not shown
light: B1 light
notes: He Ab: anti-glypican 3 IgG1 heterodimer, only the GpH7-B3 chain mutated; position in EU numbering; also called He Ab
B18: GpH7-A5/GpH7-B3 variant A327_19Q/GpL16-k0 (antibody, human IgG1, kappa)
heavy 1: not shown
heavy 2: not shown
light: B1 light
notes: as for B17
B19: GpH7-A5/GpH7-B3 variant A327_06M/GpL16-k0 (antibody, human IgG1, kappa)
heavy 1: not shown
heavy 2: not shown
light: B1 light
notes: as for B17
B20: GpH7-A5/GpH7-B3 variant A330_03V/GpL16-k0 (antibody, human IgG1, kappa)
heavy 1: not shown
heavy 2: not shown
light: B1 light
notes: as for B17
B21: GpH7-A5/GpH7-B3 variant A327_18N/GpL16-k0 (antibody, human IgG1, kappa)
heavy 1: not shown
heavy 2: not shown
light: B1 light
notes: as for B17
B22: GpH7-A5/GpH7-B3 variant A327_10E/GpL16-k0 (antibody, human IgG1, kappa)
heavy 1: not shown
heavy 2: not shown
light: B1 light
notes: as for B17
B23: GpH7-A5/GpH7-B3 variant A327_09D/GpL16-k0 (antibody, human IgG1, kappa)
heavy 1: not shown
heavy 2: not shown
light: B1 light
notes: as for B17
B24: GpH7-A5/GpH7-B3 variant A327_20W/GpL16-k0 (antibody, human IgG1, kappa)
heavy 1: not shown
heavy 2: not shown
light: B1 light
notes: as for B17
B25: GpH7-A5/GpH7-B3 variant A327_05P/GpL16-k0 (antibody, human IgG1, kappa)
heavy 1: not shown
heavy 2: not shown
light: B1 light
notes: as for B17
B26: GpH7-A5/GpH7-B3 variant A327_13S/GpL16-k0 (antibody, human IgG1, kappa)
heavy 1: not shown
heavy 2: not shown
light: B1 light
notes: as for B17
B27: GpH7-A5/GpH7-B3 variant A330_01G/GpL16-k0 (antibody, human IgG1, kappa)
heavy 1: not shown
heavy 2: not shown
light: B1 light
notes: as for B17

The binders below were run against T1, FcγRIIa(R) extracellular domain, … (assay: SPR; He Ab vs HeCon Ab (GpH7-A5/GpH7-B3/GpL16-k0)=100;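 also: surface plasmon resonance at 25 °C with the test antibody captured on a sensor chip via antigenic peptide, protein L or protein A/G and FcγR flowed over as analyte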).
Experimental: (§1) The antibody of interest was analyzed for its interaction with FcγR using a BiaCore™ T100, BiaCore™ A100, or BiaCore™ 4000 surface plasmon resonance system (GE Healthcare Japan Corp.). The running buffer used was HBS-EP+ (GE Healthcare Japan Corp.). The assay temperature was set to 25° C. The sensor chips used were: a chip prepared by immobilizing antigenic peptides onto Series S Sensor Chip CM5 (GE Healthcare Japan Corp.) by the amine coupling method; a chip prepared by immobilizing antigenic peptides biotinylated in advance onto Series S Sensor Chip SA (certified) (GE Healthcare Japan Corp.) through their interaction; a chip prepared by immobilizing protein L (ACTIGEN, BioVision, Inc.) onto Series S Sensor Chip CM5 (GE Healthcare Japan Corp.); and a chip prepared by immobilizing protein A/G (Thermo Fisher Scientific K.K.) onto Series S Sensor Chip CM5 (GE Healthcare Japan Corp.). The antibody of interest was captured onto any of these chips and allowed to interact with FcγR diluted with a running buffer. The antibody captured on the chip was washed off through the reaction of 10 mM glycine-HCl (pH 1.5) to regenerate the chip, which was repetitively used.

He/Con 2aR | Binder
66.6% | B1
92.9% | B2
127% | B3
96.9% | B4
103% | B5
90.9% | B6
96.8% | B7
78.6% | B8
105% | B9
119% | B10
96.2% | B11
72.4% | B12
73.1% | B13
105% | B14
104% | B15
103% | B16

What follows are binders tested against T2, FcγRIIa(H) extracellular domain, … in the same assay as above.
Experimental: as §1

He/Con 2aH | Binder
82.6% | B1
104% | B2
108% | B3
120% | B4
105% | B5
120% | B6
109% | B7
104% | B8
116% | B9
107% | B10
101% | B11
97.8% | B12
74.2% | B13
101% | B14
103% | B15
103% | B16

What follows are binders tested against T7, FcγRIa extracellular domain, C-terminal His tag (human, UniProt P12314 16-292) in the same assay as above.
T7 construct: extracellular domain; also called 1a
T7 sequence (P12314 other isoform, or with tags, fused parts or gaps): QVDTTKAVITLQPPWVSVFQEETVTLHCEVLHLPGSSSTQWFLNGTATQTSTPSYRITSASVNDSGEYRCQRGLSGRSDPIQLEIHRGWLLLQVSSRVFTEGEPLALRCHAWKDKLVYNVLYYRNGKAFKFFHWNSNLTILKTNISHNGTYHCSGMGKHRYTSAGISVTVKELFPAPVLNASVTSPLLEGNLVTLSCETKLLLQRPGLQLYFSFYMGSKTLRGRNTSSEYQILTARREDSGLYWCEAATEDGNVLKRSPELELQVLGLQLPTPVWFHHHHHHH
Experimental: as §1

He/Con 1a | Binder
110% | B1
106% | B2
108% | B3
107% | B4
105% | B5
102% | B6
110% | B7
105% | B8
106% | B9
106% | B10
101% | B11
105% | B12
101% | B13
106% | B14
106% | B15
102% | B16

What follows are binders tested against T3, FcγRIIb extracellular domain, … in the same assay as above.
Experimental: as §1

He/Con 2b | Binder
63.2% | B1
90.5% | B2
175% | B3
96.1% | B4
114% | B5
97.4% | B6
96.5% | B7
72.7% | B8
110% | B9
142% | B10
92.7% | B11
70.4% | B12
67.4% | B13
122% | B14
110% | B15
106% | B16

The binders below were run against T8, FcγRIIIa extracellular domain, C-terminal His tag (human, UniProt P08637 17-208) in the same assay as above.
T8 construct: extracellular domain; also called 3a
T8 sequence (P08637 other isoform, or with tags, fused parts or gaps): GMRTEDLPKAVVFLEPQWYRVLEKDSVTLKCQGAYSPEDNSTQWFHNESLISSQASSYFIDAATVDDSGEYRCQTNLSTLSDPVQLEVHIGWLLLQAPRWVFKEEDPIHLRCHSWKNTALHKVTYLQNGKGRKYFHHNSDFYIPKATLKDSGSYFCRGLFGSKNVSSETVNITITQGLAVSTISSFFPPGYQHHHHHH
Experimental: as §1

He/Con 3a | Binder
88.6% | B1
88.1% | B2
113% | B3
114% | B4
102% | B5
103% | B6
83.8% | B7
92.8% | B8
106% | B9
105% | B10
96% | B11
80.3% | B12
63.7% | B13
104% | B14
101% | B15
100% | B16

These binders were tested against T4, FcγRIIa(H) extracellular domain, … (assay: SPR (Biacore); binding relative to GpH7-A5/GpH7-B3/GpL16-k0 x100;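 also: antibodies captured on a chip surface, soluble FcγR flowed over in HBS-EP+ running buffer at 25 °C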).

He/Con 2aH | Binder
86.7% | B17
79.6% | B18
89.3% | B19
86.1% | B20
79% | B21
108% | B22
124% | B23
76.6% | B24
67.9% | B25
84.4% | B26
107% | B27

What follows are binders tested against T9, FcγRIIIa extracellular domain, C-terminal His tag (human, UniProt P08637 17-208) in the same assay as above.
T9 construct: extracellular domain; also called 3a
T9 sequence (P08637 other isoform, or with tags, fused parts or gaps): as above

He/Con 3a | Binder
93.7% | B17
54% | B18
54% | B19
98.8% | B20
62.8% | B21
70.5% | B22
86% | B23
52.6% | B24
61.9% | B25
66.7% | B26
87.3% | B27

The binders below were run against T5, FcγRIIa(R) extracellular domain, … in the same assay as above.

He/Con 2aR | Binder
125% | B17
77.7% | B18
80% | B19
84% | B20
114% | B21
142% | B22
159% | B23
95.9% | B24
80.6% | B25
98.6% | B26
122% | B27

Each binder was assayed against T6, FcγRIIb extracellular domain, … in the same assay as above.

He/Con 2b | Binder
166% | B17
67.5% | B18
74.1% | B19
59.2% | B20
141% | B21
175% | B22
214% | B23
98.2% | B24
86.3% | B25
99% | B26
117% | B27

The binders below were run against T10, FcγRIa extracellular domain, C-terminal His tag (human, UniProt P12314 16-292) in the same assay as above.
T10 construct: extracellular domain; also called 1a
T10 sequence (P12314 other isoform, or with tags, fused parts or gaps): as the sequence (P12314 other isoform, or with tags, fused parts or gaps) above

He/Con 1a | Binder
108% | B17
98.5% | B18
106% | B19
109% | B20
100% | B21
106% | B22
105% | B23
100% | B24
102% | B25
105% | B26
109% | B27
